This is an account of results in the MegaScale stability set (Tsuboyama et al. 2023).

B1: EEHEE_rd3_1049 (parent)
chain: TTVKLGDIKVTFDNPEKAKKYAQKLAKIYQLTVHVHGDTIHVK

The variants in this series derive from B1. Description: folding stability dG (cDNA display proteolysis); higher = more stable. The note with it: PBS, room temperature.
Take TTVKLGDIKVTFDNPECAKKYAQKLAKIYQLTVHVHGDTIHVK: the “folding stability dG” value worked out at 3.1 kcal/mol. Turning to TTVKLGDIKVTFDNPEWAKKYAQKLAKIYQLTVHVHGDTIHVK, the “folding stability dG” value came to 1.93 kcal/mol. On to TTVKLGDIKVTFDNPETAKKYAQKLAKIYQLTVHVHGDTIHVK, for which the “folding stability dG” value amounted to 2.15 kcal/mol. Take TTVKLGDIKVTFDNPESAKKYAQKLAKIYQLTVHVHGDTIHVK: the “folding stability dG” value was found to be 2.05 kcal/mol. On to TTVKLGDIKVTFDNPENAKKYAQKLAKIYQLTVHVHGDTIHVK, for which the “folding stability dG” value is 1.91 kcal/mol. To TTVKLGDIKVTFDNPEHAKKYAQKLAKIYQLTVHVHGDTIHVK belongs 2.02 kcal/mol; to TTVKLGDIKVTFDNPEEAKKYAQKLAKIYQLTVHVHGDTIHVK, 2.32 kcal/mol; to TTVKLGDIKVTFDNPEAAKKYAQKLAKIYQLTVHVHGDTIHVK, 2.39 kcal/mol.

Consider TTVKLGDIKVTFDNPEDAKKYAQKLAKIYQLTVHVHGDTIHVK, for which the “folding stability dG” value was determined as 2.45 kcal/mol.

TTVKLGDIKVTFDNPEYAKKYAQKLAKIYQLTVHVHGDTIHVK: the “folding stability dG” value came to 1.9 kcal/mol. With TTVKLGDIKVTFDNPELAKKYAQKLAKIYQLTVHVHGDTIHVK, the “folding stability dG” value was found to be 2.17 kcal/mol. For the variant TTVKLGDIKVTFDNPEIAKKYAQKLAKIYQLTVHVHGDTIHVK, the “folding stability dG” value was determined as 2 kcal/mol. In the case of TTVKLGDIKVTFDNPEPAKKYAQKLAKIYQLTVHVHGDTIHVK, the “folding stability dG” value came to 0.853 kcal/mol. As to TTVKLGDIKVTFDNPERAKKYAQKLAKIYQLTVHVHGDTIHVK, the “folding stability dG” value was 2.02 kcal/mol. With TTVKLGDIKVTFDNPEFAKKYAQKLAKIYQLTVHVHGDTIHVK, the “folding stability dG” value amounted to 1.84 kcal/mol.

In the case of TTVKLGDIKVTFDNPEQAKKYAQKLAKIYQLTVHVHGDTIHVK, the “folding stability dG” value came to 2.21 kcal/mol. As for TTVKLGDIKVTFDNPEMAKKYAQKLAKIYQLTVHVHGDTIHVK, the figure is 2.2 kcal/mol; as for TTVKLGDIKVTFDNPEGAKKYAQKLAKIYQLTVHVHGDTIHVK, 1.25 kcal/mol; as for TTVKLGDIKVTFDNPEVAKKYAQKLAKIYQLTVHVHGDTIHVK, 2 kcal/mol. To TTVKLGDIKVTFDNAEKAKKYAQKLAKIYQLTVHVHGDTIHVK belongs 2.09 kcal/mol. Consider TTVKLGDIKVTFDNQEKAKKYAQKLAKIYQLTVHVHGDTIHVK, for which the “folding stability dG” value is 1.65 kcal/mol. As for TTVKLGDIKVTFDNNEKAKKYAQKLAKIYQLTVHVHGDTIHVK, the “folding stability dG” value came out at 1.43 kcal/mol. As for TTVKLGDIKVTFDNIEKAKKYAQKLAKIYQLTVHVHGDTIHVK, the figure is 2.01 kcal/mol; as for TTVKLGDIKVTFDNHEKAKKYAQKLAKIYQLTVHVHGDTIHVK, 2.04 kcal/mol. To TTVKLGDIKVTFDNFEKAKKYAQKLAKIYQLTVHVHGDTIHVK belongs 3.11 kcal/mol; to TTVKLGDIKVTFDNREKAKKYAQKLAKIYQLTVHVHGDTIHVK, 1.88 kcal/mol. In the case of TTVKLGDIKVTFDNSEKAKKYAQKLAKIYQLTVHVHGDTIHVK, the “folding stability dG” value turned out to be 1.59 kcal/mol.

Turning to TTVKLGDIKVTFDNLEKAKKYAQKLAKIYQLTVHVHGDTIHVK, the “folding stability dG” value is 2.08 kcal/mol. To TTVKLGDIKVTFDNTEKAKKYAQKLAKIYQLTVHVHGDTIHVK belongs 1.4 kcal/mol; to TTVKLGDIKVTFDNEEKAKKYAQKLAKIYQLTVHVHGDTIHVK, 1.72 kcal/mol. For the variant TTVKLGDIKVTFDNKEKAKKYAQKLAKIYQLTVHVHGDTIHVK, the “folding stability dG” value stood at 1.78 kcal/mol. On to TTVKLGDIKVTFDNVEKAKKYAQKLAKIYQLTVHVHGDTIHVK, for which the “folding stability dG” value was 1.96 kcal/mol. To TTVKLGDIKVTFDNYEKAKKYAQKLAKIYQLTVHVHGDTIHVK belongs 2.53 kcal/mol; to TTVKLGDIKVTFDNMEKAKKYAQKLAKIYQLTVHVHGDTIHVK, 2.1 kcal/mol. To TTVKLGDIKVTFDNDEKAKKYAQKLAKIYQLTVHVHGDTIHVK belongs 1.16 kcal/mol. With TTVKLGDIKVTFDNGEKAKKYAQKLAKIYQLTVHVHGDTIHVK, the “folding stability dG” value is 1.3 kcal/mol. As for TTVKLGDIKVTFDNWEKAKKYAQKLAKIYQLTVHVHGDTIHVK, the “folding stability dG” value is 2.47 kcal/mol.

Turning to TTVKLGDIKVTNDNPEKAKKYAQKLAKIYQLTVHVHGDTIHVK, the “folding stability dG” value is -0.055 kcal/mol. On to TTVKLGDIKVTWDNPEKAKKYAQKLAKIYQLTVHVHGDTIHVK, for which the “folding stability dG” value stood at 0.742 kcal/mol.

Regarding TTVKLGDIKVTYDNPEKAKKYAQKLAKIYQLTVHVHGDTIHVK, the “folding stability dG” value stood at 0.563 kcal/mol. As for TTVKLGDIKVTVDNPEKAKKYAQKLAKIYQLTVHVHGDTIHVK, the figure is 0.419 kcal/mol. Turning to TTVKLGDIKVTPDNPEKAKKYAQKLAKIYQLTVHVHGDTIHVK, the “folding stability dG” value came to 0.089 kcal/mol.

In the case of TTVKLGDIKVTSDNPEKAKKYAQKLAKIYQLTVHVHGDTIHVK, the “folding stability dG” value was -0.062 kcal/mol. Consider TTVKLGDIKVTKDNPEKAKKYAQKLAKIYQLTVHVHGDTIHVK, for which the “folding stability dG” value turned out to be 0.115 kcal/mol.

Consider TTVKLGDIKVTRDNPEKAKKYAQKLAKIYQLTVHVHGDTIHVK, for which the “folding stability dG” value turned out to be 0.188 kcal/mol. Consider TTVKLGDIKVTTDNPEKAKKYAQKLAKIYQLTVHVHGDTIHVK, for which the “folding stability dG” value came to 0.094 kcal/mol. On to TTVKLGDIKVTQDNPEKAKKYAQKLAKIYQLTVHVHGDTIHVK, for which the “folding stability dG” value turned out to be 0.131 kcal/mol. As for TTVKLGDIKVTMDNPEKAKKYAQKLAKIYQLTVHVHGDTIHVK, the figure is 0.628 kcal/mol.

As for TTVKLGDIKVTLDNPEKAKKYAQKLAKIYQLTVHVHGDTIHVK, the “folding stability dG” value was determined as 0.617 kcal/mol. As for TTVKLGDIKVTFDGPEKAKKYAQKLAKIYQLTVHVHGDTIHVK, the figure is 1.05 kcal/mol.

TTVKLGDIKVTFDTPEKAKKYAQKLAKIYQLTVHVHGDTIHVK: the “folding stability dG” value worked out at 1.98 kcal/mol.

Consider TTVKLGDIKVTFDCPEKAKKYAQKLAKIYQLTVHVHGDTIHVK, for which the “folding stability dG” value amounted to 2.02 kcal/mol. Regarding TTVKLGDIKVTFDWPEKAKKYAQKLAKIYQLTVHVHGDTIHVK, the “folding stability dG” value was determined as 1.34 kcal/mol. To TTVKLGDIKVTFDRPEKAKKYAQKLAKIYQLTVHVHGDTIHVK belongs 1.26 kcal/mol.

For the variant TTVKLGDIKVTFDIPEKAKKYAQKLAKIYQLTVHVHGDTIHVK, the “folding stability dG” value was determined as 1.22 kcal/mol. Take TTVKLGDIKVTFDKPEKAKKYAQKLAKIYQLTVHVHGDTIHVK: the “folding stability dG” value is 1.25 kcal/mol. Consider TTVKLGDIKVTFDSPEKAKKYAQKLAKIYQLTVHVHGDTIHVK, for which the “folding stability dG” value came to 2.12 kcal/mol. For the variant TTVKLGDIKVTFDVPEKAKKYAQKLAKIYQLTVHVHGDTIHVK, the “folding stability dG” value came to 1.12 kcal/mol. Consider TTVKLGDIKVTFDHPEKAKKYAQKLAKIYQLTVHVHGDTIHVK, for which the “folding stability dG” value worked out at 1.61 kcal/mol.
